Measured values from IntAct's records for PubMed 27309818.

B1: Sperm-egg fusion protein Juno (Homo sapiens), A6ND01-1 (parent)
chain: MACWWPLLLELWTVMPTWAGDELLNICMNAKHHKRVPSPEDKLYEECIPWKDNACCTLTTSWEAHLDVSPLYNFSLFHCGLLMPGCRKHFIQAICFYECSPNLGPWIQPVGSLGWEVAPSGQGERVVNVPLCQEDCEEWWEDCRMSYTCKSNWRGGWDWSQGKNRCPKGAQCLPFSHYFPTPADLCEKTWSNSFKASPERRNSGRCLQKWFEPAQGNPNVAVARLFASSAPSWELSYTIMVCSLFLPFLS
B2: Izumo sperm-egg fusion protein 1 (Homo sapiens), Q8IYV9-1 (parent)
chain: MGPHFTLLCAALAGCLLPAEGCVICDPSVVLALKSLEKDYLPGHLDAKHHKAMMERVENAVKDFQELSLNEDAYMGVVDEATLQKGSWSLLKDLKRITDSDVKGDLFVKELFWMLHLQKETFATYVARFQKEAYCPNKCGVMLQTLIWCKNCKKEVHACRKSYDCGERNVEVPQMEDMILDCELNWHQASEGLTDYSFYRVWGNNTETLVSKGKEATLTKPMVGPEDAGSYRCELGSVNSSPATIINFHVTVLPKMIKEEKPSPNIVTPGEATTESSISLQPLQPEKMLASRLLGLLICGSLALITGLTFAIFRRRKVIDFIKSSLFGLGSGAAEQTQVPKEKATDSRQQ

Variants of: B1
Conditions: with IZUMO1, Q8IYV9-1

effect of a mutation on the interaction	Variant
disrupting interaction strength	L81A
decreasing interaction strength	E45A
decreasing interaction strength	E45K
decreasing interaction strength	K163E
decreasing interaction strength	K163A
decreasing interaction strength	W62A

Variants of: B2
Conditions: with IZUMO1R

effect of a mutation on the interaction	Variant
decreasing interaction strength	R160A
decreasing interaction strength	R160E
disrupting interaction strength	W148A
decreasing interaction strength	H157A
decreasing interaction strength	E71K
decreasing interaction strength	E71A
